assay: yeast display, Sf9 membrane polyspecificity reagent, FACS + sequencing; frameworks hold sequencing errors
In short: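 Galactose-induced (36–48 hours) yeast carrying a synthetic nanobody display library were exposed to 10% biotinylated, detergent-solubilized Sf9 membrane reagent at 4 °C for 1 hour. FACS followed streptavidin microbead enrichment, using low and high (top ~1%) gates for expression (anti-HA) and reagent binding (streptavidin). Colony PCR, MiSeq 2 × 250 sequencing and CDR-length filtering followed. Labels for polyreactivity reflect the gate of origin.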

Sequence | polyreactivity (PSR sort gate)
QVQLVESGGRLVQAGGSLRLSCAASGSIFLKYAMRWYRQAPGKERELVAAISSAGRTYYADSVKGRFTISRDNAKKTVYLQMNSLKPEETAVSYCAARYPYDWRHDYWGQGTQVTVSS | low polyreactivity
QVQLVESGGRLVQAGGSLRLSCAASGSIFTPYAMGCYIQAPGKERELVAAIRSVVRTNYADSVKGRFTISRDNAKNTVYLQLNSLNPEDTAVYYCATAVYPDFEYDSWGQGTQVTVSS | low polyreactivity
QVQLVESGGRLVQAGGSLRLSCAASGSIFVKYAMGWYRPAPGKERELVAAISGSGGSTYYADSVKGRFTISRDNAKTTVYLEMNSLKPEDTAVYYCAADDYFYSGRYGFEFWGHGTQVTVSS | low polyreactivity
QVQLVESGGRLVQAGGSLRLSCAASGSIFYFNAMGWYRQAPGKERELVATISRRGGSTYYADSVKGRFTISRDNAKKTVYLQMNSLKPEDTAVYYCAADYYTLYPVYIKRYGYWGQGTQVTVSS | high polyreactivity
QVQLVESGGRLVQAGGSLRLSCAASGSIISWYAMGWYRQAPGKERELVAAISNSGGSTYYADSVKGRFTISRDNAKNTVYLQMNSLKPEDTAVYYCAAYDGDTYDWGQGTQVTVSS | high polyreactivity
QVQLVESGGRLVQAGGSLRLSCAASGSILYIYAMGWYRQAPGKERELVAAISKNSADTYYADSVKGRFTISRDNAKNTVYLQMNSLKPEDTAVYYCAADVVKVAAYNYWGQGTQVTVSS | low polyreactivity
QVQLVESGGRLVQAGGSLRLSCAASGSTFDNNAMGWYRQAPGKEREFVAAITYSGGGSTSYADSVKGRFTISRDNAKNTVYLQMNSLKAEDTAVYFCAARDFETDGYTLVAYIYWGQGSQVTVSS | low polyreactivity
QVQLVESGGRLVQAGGSLRLSCAASGSTFGVNTKGWYRQAPGKEREFVAAITYGGGGTYYADSVKGRFTISRDNAKNTVYLQMNSLKPEDTAVYYCAARRAPKYYWGQGTQVTVSS | high polyreactivity
QVQLVESGGRLVQAGGSLRLSCAASGSTFHDYAMGWYTPAPGKERELVAAIYNSGGSTYYADSVKGRFSISLDNAQNTVYLQMNRLKPEDSAVYYWAADVSWYWYYEYWGQGTQVTLSS | low polyreactivity
QVQLVESGGRLVQAGGSLRLSCAASGSTFWYYAMGWYRQAPGKERELVASITYSGGSTYYADSVKGRFTISRDTAKNTVYLQMNSLKPEDTAVYYCAAEGYYSNYHYWGQGTQVTVSS | low polyreactivity
QVQLVESGGRLVQAGGSLRLSCAASGSTFYFYAMGWYRQEPGKERELVAAISFTDTSTYYADSVKARFTISRDNAKNNVYLQMNSLKPEDTAVYYCAADSDYWGQGTQVTVSS | high polyreactivity
QVQLVESGGRLVQAGGSLRLSCAASGYIFYPNVMGWYRQAPGKERELVAAISSSGGSTYYADSVKGRFTISRDNAKNTVYLQMNSLKPEDTAVYYCAARSLRYADYRSSYQKDMYYWGQGTQVTVSS | low polyreactivity
QVQLVESGGRLVQAGGSLRLSCAASGYIVTIYAMGWYRQAPGKEREFVAAITWSGGRTYYADSVKGRFTISRDNPKNTVYIQRNSLTPEDTAVYYCDARVANYLSQMYYWGQGTQVTVSS | high polyreactivity
QVQLVESGGRLVQAGGSLRLSCAPSGRTFGVYAMGWYRQAPGKERELVAVISSSSGSTYYADSVKGRFTISRDNAKNTVYLQMNSLKPEDTAVYYCAADFFYESFRDDYWGQGTQVTVSS | low polyreactivity
QVQLVESGGRLVQAGGSLRLSCASSGSTFVPNDMGLYRQAPGKERELVAAISRSGDDTYYADSVKGRFTISRDNAKNNVYLQMNSLKPVYTAVYYCAASAGYAYNYWGQGTQVTVSS | low polyreactivity
QVQLVESGGRLVQAGGSLRLSCDASGRTFYTNAMGWYRQEPGKEMELVAAISGRGSTYYADSVTGRFTISRDNAKNTVYLQMNSLKPEDTAVYYCAALLPGRSSSDYWGQGTQVTVSS | high polyreactivity
QVQLVESGGRLVQAGGSLRLSCSASGRICAYYAKGWYRQAPGKDRELVADSTYADSVKGRFTISRDNAKNTVYLQMKSLKPEYTAVYYCAVDYHFFLSRTYLPGSKYDFWGLGTQVTVSS | low polyreactivity
QVQLVESGGRLVQAGGSLRLSSAASGSTFVDYDMGWDRQAPGKERELVAAISGSGGRTYYADSVKGRFTISRDTAKNTVYLQLISVKPEDTAVYYCAAVNAGGELAYWGQGTQVTVSS | high polyreactivity
QVQLVESGGRLVQAGGSLRLSSAASGSTFYVYTMGWYRQAPGKEWELVAAISSGSSTNYADSVKGRFTISRDNAKNTVYLQMNSLQPEDTAVYYCAATRFSYVFPYRYDYWGQGTQVTVSS | low polyreactivity
QVQLVESGGRLVQAGGSLRRSCAASGSTFASNAMRWYRPAPGKERELVAAITSRDASTYYADSVKGRFTISRDNAKNTVYLQMNSLKPEDTAVYYCATDGYSPAAFDYWGQGTQVTVSS | low polyreactivity
QVQLVESGGRLVQAGGSRRLSCAASGSIFYRNAKRSYRQAPGKERELVAAISGRGGSTNYADSVKGRFTISRDNAKNTVYLQMNSLKPEDTAVYYCNRYGVSNILVRGGYWGQGTQVTVSS | high polyreactivity

Sequence | polyreactivity (PSR sort gate)
QVQLVESGGRLVQAVGSLRLRCAAAGRTFPVYAMGWYRQAPGKERELVAAIRGRSVRKYYADSVKGRFTISRDYAKNTVYLQMNSLKPEDTAVYYCAAYYLNPGMDYWGQGTQVTVSS | high polyreactivity
QVQLVESGGRLVQAVGSLRLSCAASGFTSHKYAMGWYRQAPGKERELVAAITSSGGRTYYADSVKGRFTISRDNAKNTVYFQTNSLKPEDTAVYYCNKLGRVGDAREYWGQGTQVTVSS | high polyreactivity
QVQLVESGGRLVQSGGSLRLSCAASGSIFVWNAMGWYRQAPGKERELVAAISYDGGSTYYADSVKGRFTISRDNAKNTVYLQMNSLKPEDTAVYYCAFEYVYWLSWYFQYDYWGQGTQVTVSS | low polyreactivity
QVQLVESGGSLVQAGGSLRLSCAASGSTFTKYVMGWYRQAPGKERELVAAISQSGTRTYYADSVKGRFTISRDNAKNTVYLQMNSLKPEDTAVYYCNKPVRNGSYHNRYNYWGQGTQVTVSS | high polyreactivity
QVQLVESGGSLVQAGGSLRLSCAATGRIFGPYAMGWYRQAPGKERELVATITWSGVSTYYADSVKGRFTLSRDNAKNTVYLQMNSLKPEDTAVYFCAADPQVIYRGFYQRDYWGQGTQVTVSS | low polyreactivity
QVQLVESGGVLGQAGVSLRLSCAASGRIFDGNTMGWYIQAPGQEREFVAAISGGGSTYYADSVKGRFTISRDNAKNTVYLQMNSLKPEDTAVYYCAATTGPVPLKGDYWGQGTQVTVSS | low polyreactivity
QVQLVESGGVLVQAAGSLRLSCAASGSIFDVNAMGWNRQAPGKEREFVAAISDSGGSTYYADSVKGRFTISRDNGKNTVYLQMNSLKPEDTAVYYCNADWSWYNYYDFDYWGQGTQVTVSS | low polyreactivity
QVQLVESGGVLVQAGGCLRLSCAASGSILDLNAMGWYRQAPGKERELVAAISLSGGTTYYADSVKGRFTISRDNAKNTVYLQMYSLKPEDTAVYYCNAGYFRPRAGNYVFGVESDYWGQGTQVTVSS | high polyreactivity
QVQLVESGGVLVQAGGIIRLSCAASGFIFVRYAMGWYRQAPGTERELVASIRSVGRTNYADSVKGRFTISRDNAKNTVYLQMNSLKPEDTAVYYCAAGYGSRSRPRGGYWGQGTQVTVSS | high polyreactivity
QVQLVESGGVLVQAGGSIRLTCAASGFTFSHYAMGWYRQAPGKERELVAAIRYSRASTYYADSVKGRFTISRYNAKNTVYLQMISVKPEDTSVYYCARPWWWAHHYDYDYWGQGSQVTVSS | low polyreactivity
QVQLVESGGVLVQAGGSLPLSCAASGSTFRPNAMGWYRQAPGKERELVDGISLNGTTTYYADSVKGRFTISRDNEKNTVYIQMNSLKPVDTAVYYCSADYQFGSAAEPYVFFDPEMDYWGQGTQVTGSS | low polyreactivity
QVQLVESGGVLVQAGGSLRLICAASGRIFGYYAMGWYRQAPGKERELVAAISNGGSTHYADSVKGRFTISRDNAKNTVYLQMNSLKPEDTAVYFCAAKASRVDWGYGYWGQATQVTVSS | high polyreactivity
QVQLVESGGVLVQAGGSLRLSCAASGFIFAKYAMGWYRQAPGKERELVAAINGRGTSTYYADSVKGRFTISRDNAKNTVYLQMNSLKPEDTAVYYCAARLRSGYHGQYDREDYWGQGTQVTVSS | high polyreactivity
QVQLVESGGVLVQAGGSLRLSCAASGFTFWLYAMGWYRQAPGKERELVAAISSGGGSTYYADSVKGRFTNSRDNAKNTVYLQMNSLKPEDTAVYYCNRYYYYGYDWGQGTQVTVSS | high polyreactivity
QVQLVESGGVLVQAGGSLRLSCAASGIIFYRNAMGWYRQAPGKERELVAAITSSGGRTYYADSVKGRFTISRDNAKNTVYLQMNSLKPEDTAVYYCAATRLYWKIFYGDGDYWGQGTQVTVSS | high polyreactivity
QVQLVESGGVLVQAGGSLRLSCAASGITFSRNAMGWYRQAPGKEMELVAAITWNGGRTYYADSVKGRFTISRDNAKNTVYLPMNSLKPEATAVYYCAADYDYPDYYAPSWPGYNYWGQVTQVTVSS | low polyreactivity
QVQLVESGGVLVQAGGSLRLSCAASGLICVPYSMGWYRQAPGKERELVAAISWRGGITYYADSVKGRFTISRDNAKNNVYLQMNSLKPEDTAVYYCAADGPYTGDGALDYWGQGTQVTVSS | high polyreactivity
QVQLVESGGVLVQAGGSLRLSCAASGRTFIFYAMGWYRQAPRKERELVAAITYSGTSTYYADSVKGRFTISRDNAKNTVYLQMNSLKPEDTAVYYCAKDGQRDANYYWGQGTQVTVSS | low polyreactivity
QVQLVESGGVLVQAGGSLRLSCAASGRTFPTYAMGCSRPAPGKERELVAAITSGGSTYYADTVKGRFTISRDKAKNTVYLQMTSLKPEDTAVYYCAAISTWGTKYDYWGQGTQVTVSS | high polyreactivity
QVQLVESGGVLVQAGGSLRLSCAASGRTFRYYVKGWYRRAPGKERELLASITSNGDSTYYADSVKGRFTISRDNAKNTVYLQMNSLKPEDTAVYYCAVRWRDYRGSYRGFEYWGQGTQVTVSS | high polyreactivity

Reference: the nanobody polyreactivity screen of Harvey et al. (2022)
